Measurements from publication PMC9760430, “A stapled chromogranin A-derived peptide homes in on tumors that express αvβ6 or αvβ8 integrins” (International Journal of Biological Sciences, 2023).

Tested on: orthotopically implanted BxPC-3 tumors
Assay: NIR-fluorescence imaging, orthotopic BxPC-3 pancreatic adenocarcinoma in nude mice
Conditions: ex vivo NIR fluorescence, 24 h after 1.2 nmol i.v.
Method: Mice were injected with peptide-IRDye conjugate (~1 nmol) into the tail vein and imaged at various time points (0-72 h) using the IVIS Spectrum CT Imaging System (PerkinElmer) (see Supplemental Materials). For blocking experiments, mice were injected intravenously with unlabeled peptide 5a (128 nmol/mouse) 10 min before 5a-IRDye.
Figure 3 5a-IRDye homes in on orthotopically implanted BxPC-3 tumors. Nu/nu mice were orthotopically implanted with a Matrigel solution containing BxPC-3 cells or a Matrigel solution without cells (n=3-4 mice). After 18 days, mice were injected i.v. with 5a-IRDye (1.2 nmol), and NIR images were acquired after 24 h. A control mouse, which was not surgically manipulated, was injected with the vehicle and used as a reference for quantification of autofluorescence in the NIR region. (A) Representative fluorescence images of the exposed pancreas of control and tumor-bearing mice injected with or without 5a-IRDye as indicated. (B) Ex vivo fluorescence imaging and photographs of the removed pancreas. […]
Images were acquired with three-four mice simultaneously. […] For the quantification of the fluorescence uptake by the exposed pancreas the left kidney was surgically removed before imaging. Regions of interest (ROI) were drawn on the images, and the average (Avg) radiant efficiency was calculated using the Living Image 4.3.1 software (PerkinElmer). […]

Question: How did the “accumulation in other explanted organs” value turn out when `CC[C@H](C)[C@H](NC(=O)[C@H](CCCNC(=N)N)NC(=O)[C@H](CC(C)C)NC(=O)[C@H](CC(=O)O)NC(=O)CNC(=O)[C@H](CCCNC(=N)N)NC(=O)[C@H](CC(C)C)NC(=O)[C@@H](NC(=O)[C@H](CCC(=O)O)NC(=O)[C@H](Cc1ccccc1)NC(=O)[C@@H](N)CSC1CC(=O)N(CCNC(=O)CCCCCN2C(=CC=C3CCCC(C=CC4=[N+](CCCCS(=O)(=O)[O-])c5ccc(S(=O)(=O)O)cc5C4(C)C)=C3Oc3ccc(S(=O)(=O)O)cc3)C(C)(C)c3cc(S(=O)(=O)O)ccc32)C1=O)[C@@H](C)O)C(=O)N[C@@H](CC(C)C)C(=O)N[C@@H](CO)C(=O)N[C@H](C(=O)N[C@@H](CC(C)C)C(=O)N[C@@H](CCCNC(=N)N)C(=O)N[C@H]1Cc2cn(nn2)CCCC[C@@H](C(=O)N[C@@H](CCCCN)C(=O)N[C@@H](CCC(=O)O)C(=O)N[C@@H](CC(C)C)C(=O)N[C@@H](CCC(N)=O)C(=O)N[C@@H](CC(=O)O)C(N)=O)NC(=O)[C@H](CC(C)C)NC(=O)[C@H](CC(N)=O)NC(=O)[C@H](CCC(N)=O)NC1=O)[C@@H](C)CC` (stereo partly shown) [5a-IRDye] was run?
Answer: accumulated also in kidney, lung, and liver, and little or not at all in heart, brain, muscle, bone, spleen, intestine, and stomach
